Two molecules from publication PMC2901844 (DNA repair, 2010) can be followed below.

Experiment [1] addresses T1, full length Cricetulus griseus Xrcc1-ECFP (Cricetulus griseus, UniProt O54935 1-633). Briefly: pull-down.
Experiment [2] deals with T1, full length Cricetulus griseus …. Description: far-Western, overlay or dot blot.
A further experiment deals with Xrcc1(1–325)-ECFP (Cricetulus griseus, UniProt O54935 1-325). Description: far-Western, overlay or dot blot.
Chain of Xrcc1(1–325)-ECFP (O54935 1-325): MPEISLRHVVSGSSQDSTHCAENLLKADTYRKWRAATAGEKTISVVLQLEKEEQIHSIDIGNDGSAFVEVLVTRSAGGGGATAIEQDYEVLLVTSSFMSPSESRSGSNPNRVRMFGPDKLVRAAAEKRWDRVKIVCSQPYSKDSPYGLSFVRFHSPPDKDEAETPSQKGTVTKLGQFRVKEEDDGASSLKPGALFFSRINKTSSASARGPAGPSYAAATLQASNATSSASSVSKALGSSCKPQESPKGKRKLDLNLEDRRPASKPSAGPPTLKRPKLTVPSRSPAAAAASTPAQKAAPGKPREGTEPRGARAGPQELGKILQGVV

T1 sequence (O54935 whole entry): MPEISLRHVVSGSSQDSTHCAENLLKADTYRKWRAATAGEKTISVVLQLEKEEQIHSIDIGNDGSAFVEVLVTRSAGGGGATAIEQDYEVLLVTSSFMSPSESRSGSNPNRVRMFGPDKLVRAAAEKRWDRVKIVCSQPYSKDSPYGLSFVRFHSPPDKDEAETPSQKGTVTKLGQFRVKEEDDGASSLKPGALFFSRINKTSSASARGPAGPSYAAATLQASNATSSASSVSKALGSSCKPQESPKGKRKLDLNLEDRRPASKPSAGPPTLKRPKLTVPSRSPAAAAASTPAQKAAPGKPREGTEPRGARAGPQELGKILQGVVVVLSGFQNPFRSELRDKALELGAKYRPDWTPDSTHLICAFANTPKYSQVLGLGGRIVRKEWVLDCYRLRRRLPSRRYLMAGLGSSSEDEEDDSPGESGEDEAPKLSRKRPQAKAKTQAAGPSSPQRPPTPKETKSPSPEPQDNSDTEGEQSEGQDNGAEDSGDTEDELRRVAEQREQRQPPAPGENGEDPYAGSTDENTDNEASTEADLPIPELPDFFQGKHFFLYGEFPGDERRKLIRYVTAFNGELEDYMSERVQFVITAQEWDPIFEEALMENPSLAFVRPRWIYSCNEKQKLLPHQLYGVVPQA

B1: catalytic domain of human UNG2 (Δ93 UNG2) (domain or fragment, UniProt P13051-1 94-313, looked up)
chain: FGESWKKHLSGEFGKPYFIKLMGFVAEERKHYTVYPPPHQVFTWTQMCDIKDVKVVILGQDPYHGPNQAHGLCFSVQRPVPPPPSLENIYKELSTDIEDFVHPGHGDLSGWAKQGVLLLNAVLTVRAHQANSHKERGWEQFTDAVVSWLNQNSNGLVFLLWGSYAQKKGSAIDRKRHHVLQTAHPSPLSVYRGFFGCRHFSKTNELLQKSGKKPIDWKEL
As to B1, the binding result in experiment [1] is reported as “binds”.

B2: Cy-3 labelled Δ93 UNG2 (domain or fragment, human, UniProt P13051-1 94-313, looked up)
chain: B1 chain
modifications: Cy-3 label (Cy 3 Ab Labeling kit), sites not stated
As for B2, the binding result (in experiment [2]; with Xrcc1(1–325)-ECFP) was “binds” in each case.
